Ends that are not written are not given here.
T1: Purified recombinant protein (full length) of human phosphatidylserine decarboxylase (PSD), with N-terminal His tag, expressed in E. coli (Acris-OriGene) (human)
T1 sequence (chain, fluorescently labelled in the MST assay with the peptides): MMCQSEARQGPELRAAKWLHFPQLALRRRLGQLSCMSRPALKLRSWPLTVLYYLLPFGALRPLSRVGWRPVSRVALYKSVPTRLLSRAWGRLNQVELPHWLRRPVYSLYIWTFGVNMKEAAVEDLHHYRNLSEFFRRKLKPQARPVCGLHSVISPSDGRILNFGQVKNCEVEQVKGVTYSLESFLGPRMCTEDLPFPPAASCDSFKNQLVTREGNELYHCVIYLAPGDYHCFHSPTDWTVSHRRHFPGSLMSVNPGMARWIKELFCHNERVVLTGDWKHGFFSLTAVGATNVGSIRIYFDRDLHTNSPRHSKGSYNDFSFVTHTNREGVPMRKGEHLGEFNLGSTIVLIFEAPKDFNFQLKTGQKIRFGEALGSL


Key:
[1] = molecular target: T1, Purified recombinant protein (full length) of human phosphatidylserine decarboxylase (PSD), with N-terminal His tag, expressed in E. coli (Acris-OriGene) (human); assay: cell-based or functional assay
[2] = molecular target: T1, Purified recombinant protein (full length) of human phosphatidylserine decarboxylase (PSD), with N-terminal His tag, expressed in E. coli (Acris-OriGene) (human); assay: MST, fluorescently labelled purified PSD 0.25 µM, peptide titrated 1-10 µM
[3] = molecular target: T1, Purified recombinant protein (full length) of human phosphatidylserine decarboxylase (PSD), with N-terminal His tag, expressed in E. coli (Acris-OriGene) (human); assay: microscale thermophoresis; fluorescently labelled PSD (0.25 µM) with peptide (1-10 µM)

inhibition of PSD activity (DSB-3 method) [1] [µM] | EC50 (read off the curve) [2] [nM] | Kd [3] [nM] | Binder
1 | 4000 | 3000 | ALLTSGTSDPRARVTYGTPSLWARL (not fully specified) [peptide 1C11, derived from HTRA2]
1 | 3000 | 3000 | ALSTSSPIPSVPQSQAQPQTGSGAS [peptide 2F3, derived from MAML2]
